Measured values taken from paper PMC13438699 (Nature Communications, 2026).

B1: HB31 wild type (WT) Fab (Fab, V domains shown)
VH: EVQLLESGGGLVQPGGSLRLSCTVSGFTSSNYDMSWVRQAPGKGLEWVSGISGTGRDTYYADSVKGRFTISRDNSKNTLSLQMNSLRADDTAVYFCARDRPVLRYFDWQPYGLDVWGKGTTVTVSS
VL: QSALTQPPSASGSPGQSVTISCTGTSSDVGGYNYVSWYQQYPSKAPKLMIYEVSKRPSGVPDRFSGSKSGNTASLTVSGLQAEDEADYYCNSYAGSNLYVFGTGTKVTVL
notes: also called HB31 WT Fab; HB31 Fab; source: Expi293F, transiently co-transfected, purified (CaptureSelect CH1-XL)
B2: HB31 wild type (WT) IgG (antibody, V domains shown)
VH: B1 VH
VL: B1 VL
notes: copies: 2 + 2

Target: H1 stem (#4900), HA stem construct derived from the A/Brisbane/59/2007 (H1N1) HA (Designed HA stem #4900 from influenza A …, stabilised)
Experiment: BLI
Details: both partners purified

Binder | Kd [nM]
B1 | 4.3
B2 | 2.7
